Experimental data taken from the Human Domainome abundance scans (Beltran et al. 2025).
± gives the uncertainty stated by the source.

B1: Tudor domain-containing protein 3, residues 554 to 611; numbered along this chain, Q9H7E2 (parent)
chain: KMWKPGDECFALYWEDNKFYRAEVEALHSSGMTAVVKFIDYGNYEEVLLSNIKPIQTE

Variants of: B1
Test: abundance fitness (aPCA) (normalised: wild type 0, dead -1); higher = more abundant; growth selection in yeast, the domain comes from the species named
Conditions: Homo sapiens
For H28D, the abundance fitness was -0.144 ± 0.11. Work on H28E yielded an abundance fitness of -0.159 ± 0.082. For H28F, the abundance fitness was -0.619 ± 0.14. Variant H28G has an abundance fitness of 0.034 ± 0.055. H28I gave an abundance fitness of -0.508 ± 0.15. Work on H28L yielded an abundance fitness of -0.087 ± 0.062. H28M gave an abundance fitness of -0.118 ± 0.076. With H28N the abundance fitness was -0.006 ± 0.094. H28P showed an abundance fitness of -0.001 ± 0.1. With H28Q the abundance fitness was -0.088 ± 0.13. H28R gave an abundance fitness of -0.183 ± 0.054. Variant H28S has an abundance fitness of -0.042 ± 0.066. Variant H28T has an abundance fitness of -0.065 ± 0.075. In the case of H28W, the abundance fitness is reported as -0.871 ± 0.095. H28Y gave an abundance fitness of -0.401 ± 0.11. S29A gave an abundance fitness of 0.114 ± 0.075. S29C gave an abundance fitness of -0.116 ± 0.079. With S29D the abundance fitness was 0.014 ± 0.097. Variant S29E has an abundance fitness of -0.008 ± 0.081. S29F gave an abundance fitness of -0.186 ± 0.1. In the case of S29G, the abundance fitness is reported as -0.107 ± 0.057. Work on S29H yielded an abundance fitness of -0.05 ± 0.14. S29I showed an abundance fitness of -0.05 ± 0.097. For S29K, the abundance fitness was -0.028 ± 0.082. Work on S29L yielded an abundance fitness of -0.125 ± 0.06. For S29M, the abundance fitness was -0.009 ± 0.084. S29N gave an abundance fitness of -0.062 ± 0.12. For S29P, the abundance fitness was -0.03 ± 0.088. S29Q showed an abundance fitness of -0.11 ± 0.1. For S29R, the abundance fitness was -0.133 ± 0.053. S29T gave an abundance fitness of -0.012 ± 0.074. Work on S29V yielded an abundance fitness of 0.118 ± 0.064. For S29W, the abundance fitness was -0.368 ± 0.076. In the case of S29Y, the abundance fitness is reported as -0.061 ± 0.092. S30A showed an abundance fitness of -0.192 ± 0.061. S30C gave an abundance fitness of -0.109 ± 0.089. In the case of S30D, the abundance fitness is reported as -0.179 ± 0.074. Work on S30E yielded an abundance fitness of -0.143 ± 0.081. In the case of S30F, the abundance fitness is reported as -0.435 ± 0.097. With S30G the abundance fitness was -0.132 ± 0.052. S30I showed an abundance fitness of -0.322 ± 0.12. Variant S30K has an abundance fitness of -0.172 ± 0.094. In the case of S30L, the abundance fitness is reported as -0.37 ± 0.073. S30M showed an abundance fitness of -0.282 ± 0.098. In the case of S30N, the abundance fitness is reported as -0.04 ± 0.099. Variant S30P has an abundance fitness of -0.331 ± 0.094. S30Q showed an abundance fitness of -0.254 ± 0.11. With S30T the abundance fitness was -0.119 ± 0.071. For S30V, the abundance fitness was -0.501 ± 0.063. S30W gave an abundance fitness of -0.462 ± 0.097. Variant S30Y has an abundance fitness of -0.463 ± 0.1. Variant G31A has an abundance fitness of 0.015 ± 0.076. In the case of G31C, the abundance fitness is reported as -0.12 ± 0.069. With G31D the abundance fitness was -0.198 ± 0.083. In the case of G31E, the abundance fitness is reported as -0.092 ± 0.093. G31F showed an abundance fitness of -0.558 ± 0.12. Variant G31H has an abundance fitness of -0.099 ± 0.088. For G31K, the abundance fitness was -0.148 ± 0.1. In the case of G31L, the abundance fitness is reported as -0.267 ± 0.075. Work on G31M yielded an abundance fitness of -0.043 ± 0.11. In the case of G31N, the abundance fitness is reported as -0.057 ± 0.14. G31P gave an abundance fitness of -0.48 ± 0.086. G31Q showed an abundance fitness of -0.043 ± 0.17. G31R showed an abundance fitness of -0.033 ± 0.055. Work on G31S yielded an abundance fitness of -0.082 ± 0.062. Variant G31T has an abundance fitness of 0.02 ± 0.09. G31V gave an abundance fitness of -0.45 ± 0.067. Work on G31W yielded an abundance fitness of -0.658 ± 0.099. G31Y showed an abundance fitness of -0.269 ± 0.13. In the case of M32A, the abundance fitness is reported as -0.036 ± 0.068. Work on M32C yielded an abundance fitness of -0.098 ± 0.082. For M32D, the abundance fitness was -0.057 ± 0.097. In the case of M32E, the abundance fitness is reported as 0.009 ± 0.083. With M32F the abundance fitness was -0.005 ± 0.081. Work on M32G yielded an abundance fitness of -0.031 ± 0.055. M32H showed an abundance fitness of 0.086 ± 0.11. M32I showed an abundance fitness of -0.24 ± 0.088. Work on M32K yielded an abundance fitness of -0.165 ± 0.091. For M32L, the abundance fitness was -0.045 ± 0.057. With M32N the abundance fitness was 0.003 ± 0.091. Work on M32P yielded an abundance fitness of -0.266 ± 0.081. M32Q showed an abundance fitness of 0.046 ± 0.078. M32R showed an abundance fitness of -0.009 ± 0.055. With M32S the abundance fitness was 0.02 ± 0.065. In the case of M32T, the abundance fitness is reported as 0.046 ± 0.075. Work on M32V yielded an abundance fitness of -0.054 ± 0.055. M32W showed an abundance fitness of -0.137 ± 0.07. M32Y gave an abundance fitness of 0.195 ± 0.12. Variant T33A has an abundance fitness of -0.121 ± 0.075. Work on T33C yielded an abundance fitness of -0.14 ± 0.067. T33D showed an abundance fitness of -0.877 ± 0.15. In the case of T33E, the abundance fitness is reported as -0.377 ± 0.092. T33G gave an abundance fitness of -0.444 ± 0.068. T33H gave an abundance fitness of -0.126 ± 0.089. Variant T33I has an abundance fitness of -0.276 ± 0.094. T33L gave an abundance fitness of -0.331 ± 0.065. T33M gave an abundance fitness of -0.246 ± 0.11. T33P gave an abundance fitness of -1.03 ± 0.14. Work on T33Q yielded an abundance fitness of -0.287 ± 0.094. Work on T33R yielded an abundance fitness of -0.088 ± 0.052. Work on T33S yielded an abundance fitness of 0.012 ± 0.059. For T33V, the abundance fitness was -0.232 ± 0.078. T33W gave an abundance fitness of -0.321 ± 0.071. T33Y gave an abundance fitness of -0.184 ± 0.087. For A34C, the abundance fitness was -0.072 ± 0.091. Variant A34D has an abundance fitness of -0.931 ± 0.13. Variant A34E has an abundance fitness of -0.976 ± 0.12. Variant A34F has an abundance fitness of -0.919 ± 0.21. A34G showed an abundance fitness of -0.413 ± 0.054. With A34H the abundance fitness was -0.861 ± 0.23. In the case of A34I, the abundance fitness is reported as -0.76 ± 0.18. A34K gave an abundance fitness of -0.646 ± 0.18. In the case of A34L, the abundance fitness is reported as -0.404 ± 0.074. With A34M the abundance fitness was -0.358 ± 0.11. For A34N, the abundance fitness was -0.781 ± 0.16. For A34P, the abundance fitness was -1.04 ± 0.28. With A34Q the abundance fitness was -0.575 ± 0.27. Variant A34R has an abundance fitness of -0.85 ± 0.088. In the case of A34S, the abundance fitness is reported as -0.73 ± 0.093. In the case of A34T, the abundance fitness is reported as -0.948 ± 0.17. In the case of A34V, the abundance fitness is reported as -0.078 ± 0.065. In the case of A34W, the abundance fitness is reported as -0.882 ± 0.12. A34Y showed an abundance fitness of -0.897 ± 0.29. In the case of V35A, the abundance fitness is reported as -0.277 ± 0.074. In the case of V35C, the abundance fitness is reported as -0.162 ± 0.088. V35D showed an abundance fitness of -0.426 ± 0.12. With V35E the abundance fitness was -0.227 ± 0.087. With V35F the abundance fitness was -0.186 ± 0.1. V35G showed an abundance fitness of -0.384 ± 0.057. V35H gave an abundance fitness of -0.403 ± 0.15. Variant V35I has an abundance fitness of -0.16 ± 0.13. V35K gave an abundance fitness of 0.104 ± 0.082. Work on V35L yielded an abundance fitness of -0.011 ± 0.063. With V35M the abundance fitness was -0.079 ± 0.083. For V35N, the abundance fitness was -0.211 ± 0.12. V35P gave an abundance fitness of -0.973 ± 0.14. With V35Q the abundance fitness was 0.058 ± 0.081. Variant V35R has an abundance fitness of 0.129 ± 0.054. Variant V35S has an abundance fitness of -0.032 ± 0.071. In the case of V35T, the abundance fitness is reported as 0.104 ± 0.069. For V35W, the abundance fitness was -0.087 ± 0.069. Variant V35Y has an abundance fitness of -0.092 ± 0.1. For V36A, the abundance fitness was -0.92 ± 0.097. With V36C the abundance fitness was -0.584 ± 0.13. V36D showed an abundance fitness of -0.996 ± 0.15. V36F gave an abundance fitness of -0.964 ± 0.2. With V36G the abundance fitness was -0.833 ± 0.076. V36H showed an abundance fitness of -0.838 ± 0.32. With V36I the abundance fitness was -0.295 ± 0.089. V36K gave an abundance fitness of -0.843 ± 0.17. Variant V36L has an abundance fitness of -0.571 ± 0.067. For V36N, the abundance fitness was -1.11 ± 0.3. Variant V36Q has an abundance fitness of -0.73 ± 0.14. With V36R the abundance fitness was -0.88 ± 0.1. Work on V36S yielded an abundance fitness of -0.913 ± 0.1. Variant V36T has an abundance fitness of -0.777 ± 0.12. Work on V36W yielded an abundance fitness of -0.833 ± 0.12. With K37A the abundance fitness was -0.996 ± 0.1. K37C gave an abundance fitness of -0.612 ± 0.15. K37D gave an abundance fitness of -0.74 ± 0.14. In the case of K37E, the abundance fitness is reported as -0.757 ± 0.094. Work on K37F yielded an abundance fitness of -0.218 ± 0.15. K37G showed an abundance fitness of -0.833 ± 0.065. In the case of K37H, the abundance fitness is reported as -0.32 ± 0.14. K37I gave an abundance fitness of -0.968 ± 0.25. K37L gave an abundance fitness of -0.719 ± 0.096. K37M gave an abundance fitness of -0.741 ± 0.11.
